The record followed here is PMC3355120, “LGR6 Is a High Affinity Receptor of R-Spondins and Potentially Functions as a Tumor Suppressor” (PLoS ONE, 2012).

Assay [1] addresses T1, human LGR6 (leucine-rich repeat containing, G protein-coupled receptor 6) with a Flag-tag at the N-terminus, … (human, UniProt Q9HBX8-3 25-967).
T1 construct: human LGR6, predicted mature form AA25-967 of NP_001017403; The CD8 signal peptide replaces LGR6's own; also called Flag-LGR6; LGR6 WT; source: HEK293T cells, transiently transfected (reporter assays); not shown: Flag, N-terminal, kept
T1 sequence (looked up): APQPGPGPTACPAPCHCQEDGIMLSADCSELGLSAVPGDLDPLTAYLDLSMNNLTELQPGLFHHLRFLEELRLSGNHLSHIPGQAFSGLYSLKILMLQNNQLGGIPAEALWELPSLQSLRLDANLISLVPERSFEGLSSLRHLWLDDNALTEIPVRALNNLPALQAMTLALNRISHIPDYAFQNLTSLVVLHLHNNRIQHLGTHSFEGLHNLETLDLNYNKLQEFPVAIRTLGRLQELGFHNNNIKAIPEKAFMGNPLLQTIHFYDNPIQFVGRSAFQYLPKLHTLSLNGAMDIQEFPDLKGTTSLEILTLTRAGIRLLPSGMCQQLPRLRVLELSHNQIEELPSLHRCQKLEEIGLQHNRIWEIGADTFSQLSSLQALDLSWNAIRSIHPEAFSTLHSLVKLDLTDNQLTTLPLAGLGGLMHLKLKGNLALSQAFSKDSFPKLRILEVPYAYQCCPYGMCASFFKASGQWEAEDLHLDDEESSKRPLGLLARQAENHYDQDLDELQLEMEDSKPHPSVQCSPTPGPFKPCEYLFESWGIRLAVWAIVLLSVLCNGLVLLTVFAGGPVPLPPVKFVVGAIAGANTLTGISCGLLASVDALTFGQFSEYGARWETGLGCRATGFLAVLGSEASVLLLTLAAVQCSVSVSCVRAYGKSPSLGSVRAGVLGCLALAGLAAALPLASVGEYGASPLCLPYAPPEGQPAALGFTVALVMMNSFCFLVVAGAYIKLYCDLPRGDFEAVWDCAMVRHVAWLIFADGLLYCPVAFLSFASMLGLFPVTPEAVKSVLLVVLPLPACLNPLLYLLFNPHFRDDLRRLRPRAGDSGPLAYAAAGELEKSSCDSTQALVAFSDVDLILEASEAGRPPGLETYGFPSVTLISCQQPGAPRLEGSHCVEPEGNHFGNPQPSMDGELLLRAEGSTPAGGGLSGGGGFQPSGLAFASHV
The experiment in a line: whole-cell-based competition binding assay; HEK293 cells stably expressing Flag-LGR6 incubated with mRSPO1-Fc plus serial dilutions of purified recombinant RSPO1–4; maximum specific binding is the difference with and without mRSPO1-Fc. To be noted: one partner purified.

Assay [2] addresses T1, human LGR6 (leucine-rich repeat …). The experiment in a line: cell-based or functional assay.

B1: purified recombinant R-spondin 4 (ligand, UniProt Q2I0M5 20-234, looked up)
chain: LNRRKKQVGTGLGGNCTGCIICSEENGCSTCQQRLFLFIRREGIRQYGKCLHDCPPGYFGIRGQEVNRCKKCGATCESCFSQDFCIRCKRQFYLYKGKCLPTCPPGTLAHQNTRECQGECELGPWGGWSPCTHNGKTCGSAWGLESRVREAGRAGHEEAATCQVLSESRKCPIQRPCPGERSPGQKKGRKDRRPRKDRKLDRRLDVRPRQPGLQP
notes: R-spondin 4 (RSPO4); also called RSPO4; source: purified recombinant
Turning to B1, the concentration for half-maximal inhibition (IC50) (commonly the midpoint of a concentration-inhibition curve) in assay [1] stood at 7 nM.

B2: purified recombinant R-spondin 1 (ligand, UniProt Q2MKA7 21-263, looked up)
chain: SRGIKGKRQRRISAEGSQACAKGCELCSEVNGCLKCSPKLFILLERNDIRQVGVCLPSCPPGYFDARNPDMNKCIKCKIEHCEACFSHNFCTKCKEGLYLHKGRCYPACPEGSSAANGTMECSSPAQCEMSEWSPWGPCSKKQQLCGFRRGSEERTRRVLHAPVGDHAACSDTKETRRCTVRRVPCPEGQKRRKGGQGRRENANRNLARKESKEAGAGSRRRKGQQQQQQQGTVGPLTSAGPA
notes: R-spondin 1 (RSPO1); also called RSPO1; source: purified recombinant
For the molecule B2, the “Super TOPflash β-catenin reporter in HEK293T cells transfected with LGR6 or vector, serial dilutions of RSPO1 with Wnt3a CM: gain in potency of RSPO1” value in assay [2] is about 30 fold. In addition, the IC50 in assay [1] was 3.3 nM.

B3: purified recombinant R-spondin 2 (ligand, UniProt Q6UXX9 22-243, looked up)
chain: QGNRWRRSKRASYVSNPICKGCLSCSKDNGCSRCQQKLFFFLRREGMRQYGECLHSCPSGYYGHRAPDMNRCARCRIENCDSCFSKDFCTKCKVGFYLHRGRCFDECPDGFAPLEETMECVEGCEVGHWSEWGTCSRNNRTCGFKWGLETRTRQIVKKPVKDTILCPTIAESRRCKMTMRHCPGGKRTPKAKEKRNKKKKRKLIERAQEQHSVFLATDRANQ
notes: R-spondin 2 (RSPO2); also called RSPO2; source: purified recombinant
For B3, the IC50 in assay [1] was found to be 0.5 nM.

B4: purified recombinant R-spondin 3 (ligand, UniProt Q9BXY4 22-272, looked up)
chain: QNASRGRRQRRMHPNVSQGCQGGCATCSDYNGCLSCKPRLFFALERIGMKQIGVCLSSCPSGYYGTRYPDINKCTKCKADCDTCFNKNFCTKCKSGFYLHLGKCLDNCPEGLEANNHTMECVSIVHCEVSEWNPWSPCTKKGKTCGFKRGTETRVREIIQHPSAKGNLCPPTNETRKCTVQRKKCQKGERGKKGRERKRKKPNKGESKEAIPDSKSLESSKEIPEQRENKQQQKKRKVQDKQKSVSVSTVH
notes: R-spondin 3 (RSPO3); also called RSPO3; source: purified recombinant
Take B4: in assay [1], the half-maximal inhibitory concentration (IC50) was found to be 1.7 nM.
